Measurements: the supplement of paper PMC10724198
± gives the standard deviation of the averaged measurements.

The sequences below were run on Saccharomyces cerevisiae (assay: protein stability index of tFT-peptide fusion (C-terminal peptide) (PSI (0-1 scale)); higher = more stable (slower turnover)). Settings: genetic background: doa10 deletion; temperature: 30 C.
Protocol: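 MPS profiling in S. cerevisiae of the tFT-X12 degron library: putative degron peptides plus stable controls, 12 aa, fused to the C-terminus of a sfGFP-mCherry timer. Cells are FACS-sorted into 8 mCherry/sfGFP bins and deep-sequenced. PSI runs from 0 (unstable) to 1 (stable). Backgrounds are wild type, das1Δ and doa10Δ at 30 °C, and wild type, das1Δ, cdc34-1 and cdc53-1 at 37 °C; 2-3 technical replicates each.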
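Note: PSI is a weighted mean of sequencing reads over stability bins, variants kept only with over 10 reads, mCherry proximal and sfGFP distal, peptide attached via GGGS linker.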

Sequence | protein stability index
LLSFYFVLAYMV | 0.197 ± 0.024
LLSYMVSLVVYL | 0.16 ± 0.028
LLYYQVFKTRRL | 0.3565 ± 0.0012
LNQRGKRKYLIM | 0.372 ± 0.012
LNTVALIRIVVS | 0.125 ± 0.015
LPILFPAALRLY | 0.267 ± 0.013
LPPPYSPRLFHN | 0.146 ± 0.016
LPTVSRPGALIC | 0.144 ± 0.0049
LRCRAATSRTVS | 0.391 ± 0.015
LRNYKCLRLLIC | 0.0736 ± 0.0054
LRPTFLLLFRPL | 0.618 ± 0.004
LRSLLIIYLLIF | 0.203 ± 0.0043
LSACYSRYVFVS | 0.0584 ± 0.017
LSASFYFVFFSN | 0.155 ± 0.032
LSILLFVQFFPP | 0.24 ± 0.0013
LSLPTPLPSPPA | 0.449 ± 0.019
LSPLSPLLFRLI | 0.249 ± 0.0059
LSRLIFKVSVLM | 0.237 ± 0.032
LSRRFSLALFWT | 0.1762 ± 0.0015
LSSRGGRCRRLV | 0.321 ± 0.0092
LVFAFFLLSFFI | 0.481 ± 0.025
LVFSFFFLFFFM | 0.375 ± 0.027
LVLFYLWSSVWA | 0.251 ± 0.01
LVLLIQKFLTDK | 0.59 ± 0.017
LVLSFVMLVSGH | 0.149 ± 0.0053
LVPVWVGLRVLF | 0.347 ± 0.018

Sequence | protein stability index
LVSCGNFLVFCF | 0.211 ± 0.0058
LVSSYVPFFFAL | 0.25 ± 0.0073
LVSVLLLFWFLF | 0.344 ± 0.021
LVYCWFAEYFLV | 0.0883 ± 0.016
LVYLVCAYSECE | 0.242 ± 0.019
LWCLVWGGVWGV | 0.34 ± 0.0085
LWFVIYLLCFFV | 0.285 ± 0.0031
MFFSWVLSISLT | 0.024 ± 0.0024
MIVAIQLVDHPP | 0.409 ± 0.016
MLECIIHLTITR | 0.4306 ± 0.0039
MLSVVSFVSCTC | 0.1631 ± 0.0015
MRVYLVLWADSC | 0.19 ± 0.015
MSIWKIFIWRLG | 0.132 ± 0.013
MVAHTVRVKCGI | 0.557 ± 0.016
MVVILLVHWEYV | 0.17 ± 0.0031
MWFFFICYFLSV | 0.262 ± 0.021
MYESIRILVNKV | 0.226 ± 0.0021
NFCVLLQFCVLV | 0.364 ± 0.017
NFSLFVHFLGLC | 0.361 ± 0.0091
NNGLLLDILIKA | 0.248 ± 0.0094
NTNITHHSVKLR | 0.644 ± 0.024
NVWCWGASCFFC | 0.3367 ± 0.0033
PALLLFLRNLLL | 0.304 ± 0.018
PAPANRPTPRPV | 0.652 ± 0.014
PCVCFIILGMLS | 0.285 ± 0.013
PFARIIDILLVI | 0.298 ± 0.0017

Sequence | protein stability index
PFIPLLLAPALA | 0.275 ± 0.0074
PFPRCRLIFFFM | 0.106 ± 0.0088
PFRSAYYLLFLL | 0.122 ± 0.015
PFVATRVSCFLT | 0.339 ± 0.004
PHFDLLLCLSLN | 0.248 ± 0.032
PHLDLYRLSALI | 0.329 ± 0.031
PHPPRPPCPPIL | 0.699 ± 0.037
PHVSALSRDPES | 0.65 ± 0.025
PISNMSIILLFL | 0.378 ± 0.018
PLFFGVQAFGGV | 0.669 ± 0.033
PLPCFVLRLPVF | 0.267 ± 0.011
PLPSEKAPTLLL | 0.636 ± 0.027
PLPSFLYFILLR | 0.524 ± 0.035
PLRKYLRHLLSL | 0.1635 ± 0.0013
PLRRPPPRPPWP | 0.69 ± 0.03
PLSPTNLSRLLS | 0.1987 ± 0.0011
PPGSPPGSLRPT | 0.662 ± 0.029
PPHRTLLQLRTN | 0.169 ± 0.021
PPPAPPLSMPAP | 0.671 ± 0.021
PPPLCSTCIRCC | 0.175 ± 0.0021
PPQDQAPVGVND | 0.623 ± 0.03
PPRCLLPPPSRS | 0.72 ± 0.05
PPRDPGGLFTPF | 0.703 ± 0.022
PPSPAPLPDSLP | 0.693 ± 0.015
PPSPPLLFHFPP | 0.661 ± 0.022
PPTLLPPLHPAP | 0.666 ± 0.028

Same assay, conditions: genetic background: wild type; temperature: 30 C

Sequence | protein stability index
LLSFYFVLAYMV | 0.179 ± 0.02
LLSYMVSLVVYL | 0.166 ± 0.031
LLYYQVFKTRRL | 0.384 ± 0.022
LNQRGKRKYLIM | 0.412 ± 0.024
LNTVALIRIVVS | 0.137 ± 0.036
LPILFPAALRLY | 0.285 ± 0.026
LPPPYSPRLFHN | 0.166 ± 0.016
LPTVSRPGALIC | 0.192 ± 0.02
LRCRAATSRTVS | 0.446 ± 0.025
LRNYKCLRLLIC | 0.0688 ± 0.012
LRPTFLLLFRPL | 0.407 ± 0.017
LRSLLIIYLLIF | 0.192 ± 0.0044
LSACYSRYVFVS | 0.093 ± 0.023
LSASFYFVFFSN | 0.188 ± 0.0085
LSILLFVQFFPP | 0.253 ± 0.012
LSLPTPLPSPPA | 0.456 ± 0.017
LSPLSPLLFRLI | 0.226 ± 0.013
LSRLIFKVSVLM | 0.231 ± 0.025
LSRRFSLALFWT | 0.197 ± 0.031
LSSRGGRCRRLV | 0.37 ± 0.013
LVFAFFLLSFFI | 0.466 ± 0.027
LVFSFFFLFFFM | 0.287 ± 0.05
LVLFYLWSSVWA | 0.279 ± 0.034
LVLLIQKFLTDK | 0.617 ± 0.052
LVLSFVMLVSGH | 0.185 ± 0.024
LVPVWVGLRVLF | 0.328 ± 0.022

Sequence | protein stability index
LVSCGNFLVFCF | 0.234 ± 0.013
LVSSYVPFFFAL | 0.29 ± 0.031
LVSVLLLFWFLF | 0.324 ± 0.013
LVYCWFAEYFLV | 0.106 ± 0.0044
LVYLVCAYSECE | 0.274 ± 0.0093
LWCLVWGGVWGV | 0.343 ± 0.039
LWFVIYLLCFFV | 0.291 ± 0.04
MFFSWVLSISLT | 0.0234 ± 0.0076
MIVAIQLVDHPP | 0.426 ± 0.028
MLECIIHLTITR | 0.444 ± 0.038
MLSVVSFVSCTC | 0.191 ± 0.027
MRVYLVLWADSC | 0.184 ± 0.0039
MSIWKIFIWRLG | 0.153 ± 0.024
MVAHTVRVKCGI | 0.56 ± 0.056
MVVILLVHWEYV | 0.171 ± 0.025
MWFFFICYFLSV | 0.249 ± 0.02
MYESIRILVNKV | 0.326 ± 0.038
NFCVLLQFCVLV | 0.36 ± 0.02
NFSLFVHFLGLC | 0.399 ± 0.023
NNGLLLDILIKA | 0.295 ± 0.028
NTNITHHSVKLR | 0.662 ± 0.038
NVWCWGASCFFC | 0.36 ± 0.021
PALLLFLRNLLL | 0.352 ± 0.059
PAPANRPTPRPV | 0.6256 ± 0.006
PCVCFIILGMLS | 0.308 ± 0.016
PFARIIDILLVI | 0.315 ± 0.022

Sequence | protein stability index
PFIPLLLAPALA | 0.307 ± 0.023
PFPRCRLIFFFM | 0.115 ± 0.017
PFRSAYYLLFLL | 0.118 ± 0.0092
PFVATRVSCFLT | 0.39 ± 0.05
PHFDLLLCLSLN | 0.257 ± 0.033
PHLDLYRLSALI | 0.366 ± 0.021
PHPPRPPCPPIL | 0.678 ± 0.015
PHVSALSRDPES | 0.662 ± 0.017
PISNMSIILLFL | 0.391 ± 0.015
PLFFGVQAFGGV | 0.679 ± 0.014
PLPCFVLRLPVF | 0.304 ± 0.024
PLPSEKAPTLLL | 0.6384 ± 0.0045
PLPSFLYFILLR | 0.357 ± 0.012
PLRKYLRHLLSL | 0.159 ± 0.012
PLRRPPPRPPWP | 0.644 ± 0.025
PLSPTNLSRLLS | 0.234 ± 0.037
PPGSPPGSLRPT | 0.665 ± 0.036
PPHRTLLQLRTN | 0.164 ± 0.02
PPPAPPLSMPAP | 0.681 ± 0.022
PPPLCSTCIRCC | 0.205 ± 0.019
PPQDQAPVGVND | 0.644 ± 0.038
PPRCLLPPPSRS | 0.692 ± 0.012
PPRDPGGLFTPF | 0.674 ± 0.028
PPSPAPLPDSLP | 0.691 ± 0.021
PPSPPLLFHFPP | 0.658 ± 0.018
PPTLLPPLHPAP | 0.688 ± 0.038
